Assay results as given in US12371675B2, “Process and microorganism for synthesis of adipic acid from carboxylic acids” (THE GOVERNING COUNCIL OF THE UNIVERSITY OF TORONTO, priority 2015, dated 2025).

Assays:
[1] = Whole-cell anaerobic biotransformation by E. coli expressing EREDs; type: cell-based; conditions: 20 mM 2-hexenedioic acid
[2] = Whole-cell biotransformation of muconic acid by E. coli expressing EREDs; type: cell-based; conditions: 0.7 mM, 24-hr incubation
Method: After a 24-hr incubation, no muconic acid or 2-hexenedioic acid were detected in the culture, and a 99% yield of adipic acid was obtained (FIGS. 8a, 8b, and 8c). […] The 3-hexenedioic acid-like compound appears to be an inefficient substrate for these EREDS. This is similar to the mutated 2,4-dienoyl-CoA reductases from E. coli, which catalyze hydrogenation of 2,4-dienoyl CoA into 3-enoyl CoA (Tu, X., Hubbard, P. A., Kim, J. J. P. & Schulz, H. Two distinct proton donors at the active site of Escherichia coli 2,4-dienoyl-CoA reductase are responsible for the formation of different products. Biochemistry 47, 1167-1175 (2008).).

Molecule	time to complete conversion of 2-hexenedioic acid to adipic acid [1]	yield of adipic acid from cis,cis-muconic acid [2]	yield of adipic acid from trans,trans-muconic acid [2]
EREDMT: 2-enoate reductase (ERED) from Moorella thermoacetica ATCC 39073 (protein) MVVAYTRLFEPIKIGKVEIKNKIAMAPMGVLGLATQDGCFSKRVVDYYVERAKGGTGLIITSVTKVDNEIERFKAGAVPVATANPLHFIATAGELTERVHAYGTKIFLQLGMGFGRVAAPILLESHPVAPSALPNFWDPSITCRELTTAEVETLVQRASEAAEIAVEAGFDGVEIHAMHEGYLLDQFTIALFNRRGDKYGGALEDRLTFPIEIVRAIKDRVGKDFPVVLRFSIKNYIKDWRQGGLPGENFQEKGRDVEEALAAAKILEGAGYDGFDADAGSYDAWYWAHPPVYQKHGCYLPLTQRLKEVVKVPVIVAGRLEIPELAEEALVKGQADMIAIGRGLLTDPYWVNKVMTGRSKNIRPCIGCHDGCLGRGFLGRPLSCTVNPACGREEEYAIDRAPEAKQVMVIGGGVAGMEAARVAALRGHRVSLYEKSDRLGGHVVEAAVPDFKADDGRLLEWYKTELGELQVEIHLNQEVTPEFVEEKNPDVVVVATGSTPAIPDIPGVNKDKVTTVSDLLLGKKQAGDRVVIIGGGLAGCETALWLAQQGKDVTIIEILDDLMRAGIPVPYMNRMMLLDLLKMNGVKWLTETSVLEVTDDGVTLIGKTYQRSPLPADTVILAVGFAADQRLYNALRDKIPNLYLIGDSREPRNILAAIWEGYEVGRGI	6 h	99%	99%
EREDCL: 2-enoate reductase (ERED) from Clostridium ljungdahlii DSM 13528 (protein) MKNKSLFQPIKIGKMEVKNKISMAPMGAFGLVDNEGCYNQRAIDYYVERAKGGTGLIITSITKVENELDKVVPGIIPVISTNPGRFLMTSSEMTERVHAYGAKIFLQLTMGFGRSGAPGTLLTSQPVSASDIPNYWDPTVTCRALTTSEVEWIVSKFIEGADIAQKADFDGVEIHAVHEGYLLDQFTLSIFNRRTDKYGGDLRGRLQLPIEIVQGIKARLGDDFPVGLRYSVKSCIKDWRQGGLPDEDYLEKGRDLKEGLDAAKILEAAGYDELNTDLGTYDAWYWSHPPIYQKNGLYLPYTKELKKVVKIPVIVAGKLGIPEDAEKALDDKAADMIGLGRPLLADPYWPKKVLSDNSERIRPCIGCHTGCLGRGFEGKPLSCTVNPAVGRERYYEIKPTLTPKKVMVVGGGVAGMEAARIIKMRGHDVTIYEGTDKLGGVIIPGSVPDFKVDDRRLIDWYKSEIKELEVKVNFNTKVTEELVEEEKPDVVIIATGAKEIKINVPGIEKDKVITALELLNDNKKVGNDVLMVGGGLVGCEAALYLAKQGKNVTIVEAKDTLLNSSKPIPHMNKIMLIDLLNMYNVKAITNNSLLEVTDKGAVLINNKFKKQEVSADTVTIAVGFKSDRELYNKLNGNIADLYLIGDAYQSANIMNAIWSANEIGLNC	48 h	–	99%
